From US20190092858A1

Molecular target: plasma proteins (fresh human plasma)
Assay: size exclusion chromatography (Sephadex G-50 spin columns) with gamma counting, after incubation in fresh human plasma at 37 C for up to 4 h

- protein binding (% bound to plasma proteins): < 5%
Substance: 99mTc-HYNIC-P8RI (obtained with tricine/EDDA as coligands) (peptide)
